Test results from patent US11260100B2, “Compositions targeting the interaction domain between p27Kip1 and Brk and methods of use thereof to inhibit p27 Y phosphorylation and cdk4 activity” (The Research Foundation for the State University of New York, priority 2014, dated 2022).

Key:
cdk2 = target: T1, cdk2 (Homo sapiens, UniProt P24941); assay: Immunoblot of cdk2T160 as measure of activated cdk2 (FIG. 10); assay type: cell-based; details: MCF7, drugs at IC50
T1 construct: added to or expressed in MCF7 breast cancer cells on day 2 post plating; endogenous in cells; host or cells: MCF7 (ALT-MCF7 tetracycline-inducible line)
Protocol: FIG. 10: ALT BRK inhibits both CDK4 and CDK2. ALT, Palbociclib alone or in combination were added to or expressed in MCF7 breast cancer cells on day 2 post plating. Drugs were added at their IC50 concentration, based on previous results. ALT is expressed from an ALT-MCF7 tetracycline inducible cell line generated in the Blain lab. When tetracycline is added to the cell culture media, ALT is expressed in these cells. Vector: no tetracycline was added, so no ALT induction was detected. Drugs and media were replaced every two days. Cells were harvested every two days, lysed and used in immunoblot analysis. Actin: loading control. pRBser780 is a phospho-specific antibody that recognizes sites phosphorylated by cdk4, so is a measure of active cdk4. cdk2T160 recognizes a required phosphorylation event on residue […] and is a measure of activated cdk2.
(§1) Additional experiments were performed assessing activity of Brk in combination with Palbociclib. The data presented in FIGS. 9A and 9B reveal that Palbociclib and Brk inhibit proliferation for 2 days, and then resistance is observed (proliferation increases). Alt maintained arrest for roughly 10 days (50% inhibition of proliferation is detected). […] Alt-Brk/Palbociclib combination leads to a more durable cell cycle arrest. Mono therapy treated cells start to become resistant between day 8-10. […]

MCF7 cells = assay: Tetracycline inducible Alt Brk expression in MCF7 cells; assay type: cell-based, human; details: +Tet
Protocol: FIGS. 8A-8G: Alt Brk (SEQ ID NO: 17) acts as an endogenous inhibitor of Brk. (FIG. 8A) Flag tagged WT p27 was incubated with increasing amount of Flag tagged Alt-Brk (lanes 5-7) in presence of equal amount of Brk. Lane 5: +equimolar Brk and Alt, lane 6: ++2.5×Alt, lane 7: +++5×Alt Immunoblot analysis was performed using Flag, pY88 and pY74 antibodies. (FIG. 8B) Alt-Brk expressing cells were plated on day 0. They were induced (+Tet) or uninduced (−Tet) on day 1 and cells were harvested on days 2, 3 and 4 Immunoblot analysis was performed using N-terminal Brk, C-terminal Brk, Rb, Ser780 pRb, Flag or Actin antibodies. (FIG. 8C) p27 was immunoprecipitated from induced (+) or un-induced (−) Alt Brk expressing cells and immunoblot analysis was performed with p27, pY88 and pY74 antibodies. (FIG. 8D) Alt Brk or TRE3G vector alone cells were treated with + or −Tet and cell counts were used to monitor proliferation. […] (FIG. 8F) p27 was immunoprecipitated from MCF7 cells that were either contact arrested (G0), asynchronous (A), or serum starved with 1% and 0% serum for 48 h. Immunoblot analysis was performed to probe for p27, pY88 and pY74. IgG and Mv1Lu lysates served as a negative control. (FIG. 8G) Expression of WT or mutant p27s was induced by adding Tetracycline to the culture media. p27 was immunoprecipitated from cell lysates and probed for p27, pY88 and pY74 Immunoprecipitation with IgG served as a negative control.
NP-ALT was added to cell media in the absence of fetal bovine serum for 6 hours. This media was removed and replaced with FBS+media, and cells were allowed to recover for 2 days, at which time, cell counts were determined. Counts were standardized to the proliferation seen in the NO FBS untreated control. • Expression in vivo. Generation of the WT-Brk, KM-Brk, and YF-Brk has been described (32) Amphotropic retroviruses were generated by transfection using Lipofectamine 2000 (Life Technologies 11668-019) of HEK 293 cells with pAmpho envelope and pBabe or pTRE3G tetracycline inducible constructs. Following viral infection of MCF7 cells, stable integrants were isolated by puromycin selection. Colonies were pooled to generate stable, puromycin resistant clones. Stable expression was verified by immunoblot and immunofluorescence analysis. Tetracycline inducible expression was achieved by the addition of TetExpress (Clontech) to the media. • Mouse xenograft model. Female NOD/SCID 8 week old mice were injected with MCF7-ALT cells in the 4th mammary gland. Tumors were allowed to develop to a volume of 200 mm3, before treatment. Tumor volume was monitored every other day using digital calipers. Vehicle: daily gavage with PBS. […] Doxy+PD: Daily gavage of Palbociclib 100 mg/kg and 0.1 mg/ml doxycycline added to the drinking water. • Quantitative RT-PCR. […]

MCF7 breast cancer cells = assay: Proliferation with ALT and Palbociclib at IC50 concentration (FIG. 9); assay type: cell-based, human
Protocol: FIGS. 9A-9B: AltBrk Synergizes with Palbociclib. ALT, Palbociclib, or Brk alone or in combination were added to or expressed in MCF7 breast cancer cells on day 2 post plating. Drugs were added at their IC50 concentration, based on previous results. ALT is expressed from an ALT-MCF7 tetracycline inducible cell line generated in the Blain lab. When tetracycline is added to the cell culture media, ALT is expressed in these cells. Vector: no tetracycline was added, so no ALT induction was detected. (FIG. 9A) Cells were harvested and counted every two days, as a measure of proliferation. Proliferation is plotted as a percentage relative to that seen in the DMSO treated control. Drugs and media were replaced every two days. (FIG. 9B) Viability was measured by trypan blue staining, and plotted relative to viability seen in the DMSO treated control.
as §1

cdk4 = target: T2, cdk4 (Homo sapiens, UniProt P11802); assay: Immunoblot of pRBser780 as measure of active cdk4 (FIG. 10); assay type: cell-based; details: MCF7, drugs at IC50
T2 construct: added to or expressed in MCF7 breast cancer cells on day 2 post plating; endogenous in cells; host or cells: MCF7 (ALT-MCF7 tetracycline-inducible line)
T2 sequence (P11802 2-303 limits assumed): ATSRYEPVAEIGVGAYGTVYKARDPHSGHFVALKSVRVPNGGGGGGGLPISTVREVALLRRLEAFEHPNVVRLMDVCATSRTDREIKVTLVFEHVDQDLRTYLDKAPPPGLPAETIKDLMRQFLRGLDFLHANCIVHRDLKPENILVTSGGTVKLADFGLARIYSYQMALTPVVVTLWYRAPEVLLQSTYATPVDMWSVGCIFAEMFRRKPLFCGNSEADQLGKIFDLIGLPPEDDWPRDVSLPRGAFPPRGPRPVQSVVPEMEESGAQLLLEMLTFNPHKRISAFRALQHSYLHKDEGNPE
T2 sequence (P24385 whole entry partner): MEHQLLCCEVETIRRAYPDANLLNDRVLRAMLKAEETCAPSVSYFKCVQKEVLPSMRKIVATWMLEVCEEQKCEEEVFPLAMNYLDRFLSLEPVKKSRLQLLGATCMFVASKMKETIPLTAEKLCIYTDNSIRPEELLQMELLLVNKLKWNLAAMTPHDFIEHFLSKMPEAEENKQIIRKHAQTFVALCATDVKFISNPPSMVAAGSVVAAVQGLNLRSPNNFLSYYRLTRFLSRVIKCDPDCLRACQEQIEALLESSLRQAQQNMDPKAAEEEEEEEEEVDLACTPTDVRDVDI
Protocol: ALT, Palbociclib alone or in combination were added to or expressed in MCF7 breast cancer cells on day 2 post plating. […] ALT is expressed from an ALT-MCF7 tetracycline inducible cell line generated in the Blain lab. When tetracycline is added to the cell culture media, ALT is expressed in these cells. Vector: no tetracycline was added, so no ALT induction was detected. Drugs and media were replaced every two days. Cells were harvested every two days, lysed and used in immunoblot analysis.

B1: Alt-Brk: alternative splice variant of Brk (SEQ ID NO: 17), 15 KD protein with SH3 domain, lacks kinase domain (protein, listed as Homo sapiens)
chain: MVSRDQAHLGPKYVGLWDFKSRTDEELSFRAGDVFHVARKEEQWWWATLLDEAGGAVAQGYVPHNYLAERETVESEPAGHAGCAALQDLAACRGPAAPERGGVLPQPARACELPQGPEPVPRPAAGRALPEARA
cdk2
  cdk2 activity (cdk2T160): inhibits cdk2
MCF7 cells
  Rb phosphorylation on residue Ser780: Rb phosphorylation was reduced
  cell cycle effect (cell counting, FACS): arrested in G1 phase
  endogenous p27 Y74 phosphorylation: unchanged
  endogenous p27 Y88 phosphorylation: reduced
MCF7 breast cancer cells; drugs at IC50 concentration, replaced every two days
  duration of proliferation inhibition / arrest: roughly 10 days
MCF7 breast cancer cells; during arrest
  inhibition of proliferation: 50%
cdk4
  cdk4 activity (pRBser780): inhibits cdk4
